The values below come from paper PMC13507078, “The BRCT domain enhances DNA binding and catalytic efficiency of fungal PARPs”.

This data set concerns the target T1, Af-PARP1 ΔBRCT (Aspergillus fumigatus, UniProt B0Y3N8 196-688).
T1 sequence: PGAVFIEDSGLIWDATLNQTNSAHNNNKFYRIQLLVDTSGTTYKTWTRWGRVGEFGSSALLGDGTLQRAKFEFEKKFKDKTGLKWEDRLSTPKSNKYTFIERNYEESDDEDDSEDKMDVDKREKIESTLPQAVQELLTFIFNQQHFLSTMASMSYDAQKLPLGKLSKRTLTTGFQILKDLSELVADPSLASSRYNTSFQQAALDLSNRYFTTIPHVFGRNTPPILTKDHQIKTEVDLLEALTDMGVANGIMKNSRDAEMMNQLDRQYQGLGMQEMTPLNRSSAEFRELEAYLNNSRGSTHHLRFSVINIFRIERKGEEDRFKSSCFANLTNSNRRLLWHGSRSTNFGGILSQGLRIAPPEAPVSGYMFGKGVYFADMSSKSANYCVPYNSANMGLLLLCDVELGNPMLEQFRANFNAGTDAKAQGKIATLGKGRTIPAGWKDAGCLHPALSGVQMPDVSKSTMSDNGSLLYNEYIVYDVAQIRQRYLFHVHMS
The experiment in a line: EMSA; similar apparent strength to WT in titration; EMSA: 50 mM HEPES pH 8, 100 mM NaCl, 10% glycerol, 10 mM DTT, 45 min at 4 °C, 7% native PAGE 0.5x TBE; plasmid EMSA: 20 mM Tris-HCl pH 8, 30 mM NaCl, 1 mM EDTA, 1 mM DTT; CD: 20 mM HEPES pH 8, 100 mM NaCl, 0.5 mM TCEP, 2% glycerol. Particulars: protein: recombinant; tags: N-terminal His (HRV3C-cleavable; removed for SAXS/CD); dumbbell of two hairpins, nick. Background: In EMSA bound probe runs differently from free probe, usually more slowly.

As for CGGTCGATCGTAAGATCGACCGGCGCTGGAGCTTGCTCCAGCGC (structured_DNA, 5'-phosphate) [DNA-1 (5'P nick)], the binding result is “binds”.
